Source: publication doi:10.1101/2020.06.26.173310 (bioRxiv, 2020)
Where two headings read alike, the source gives them in different places.

B1: response regulator from Agrobacterium fabrum (AtRR) (natural protein, Agrobacterium fabrum strain C58)
chain: MPELRPILLVEDNPRDLELTLTALEKCQLANEVVVARDGTEALDYLNVTGSHHNRPGGDPAVVLLDLKLPKVDGLEVLQTVKGSDHLRHIPVVMLTSSREEQDLVKSYELGVNAFVVKPVEFNQFFKAIQDLGVFWALLNE
B2: bacteriophytochrome from Deinococcus radiodurans (DrBphP) (natural protein, Deinococcus radiodurans strain R1, UniProt Q9RZA4 1-755, looked up)
chain: MSRDPLPFFPPLYLGGPEITTENCEREPIHIPGSIQPHGALLTADGHSGEVLQMSLNAATFLGQEPTVLRGQTLAALLPEQWPALQAALPPGCPDALQYRATLDWPAAGHLSLTVHRVGELLILEFEPTEAWDSTGPHALRNAMFALESAPNLRALAEVATQTVRELTGFDRVMLYKFAPDATGEVIAEARREGLHAFLGHRFPASDIPAQARALYTRHLLRLTADTRAAAVPLDPVLNPQTNAPTPLGGAVLRATSPMHMQYLRNMGVGSSLSVSVVVGGQLWGLIACHHQTPYVLPPDLRTTLEYLGRLLSLQVQVKEAADVAAFRQSLREHHARVALAAAHSLSPHDTLSDPALDLLGLMRAGGLILRFEGRWQTLGEVPPAPAVDALLAWLETQPGALVQTDALGQLWPAGADLAPSAAGLLAISVGEGWSECLVWLRPELRLEVAWGGATPDQAKDDLGPRHSFDTYLEEKRGYAEPWHPGEIEEAQDLRDTLTGALGERLSVIRDLNRALTQSNAEWRQYGFVISHHMQEPVRLISQFAELLTRQPRAQDGSPDSPQTERITGFLLRETSRLRSLTQDLHTYTALLSAPPPVRRPTPLGRVVDDVLQDLEPRIADTGASIEVAPELPVIAADAGLLRDLLLHLIGNALTFGGPEPRIAVRTERQGAGWSIAVSDQGAGIAPEYQERIFLLFQRLGSLDEALGNGLGLPLCRKIAELHGGTLTVESAPGEGSTFRCWLPDAGPLPGAADA
modifications: biliverdin IXα chromophore, thioether linkage to the conserved cysteine within the PAS domain

Assays:
SEC [1] = molecular target: the molecule itself; assay: SEC
SEC [2] = molecular target: the molecule itself; assay: SEC; remark: listed apart in the source

Protein	stoichiometry N (SEC [1])	stoichiometry N (SEC [2])
B1	2	
B2		2
